# Experiments:
# [1] = molecular target: the molecule itself; assay: SEC-UV (self-association)
# [2] = molecular target: the molecule itself; assay: SEC-MALS (self-association)
protein,measurement,setting,value
"3mCDTa1 (CDTa minus the signal peptide with R302A, E385A and E387D) (enzyme) MVCNTTYKAPIERPEDFLKDKEKAKEWERKEAERIEQKLERSEKEALESYKKDSVEISKYSQTRNYFYDYQIEANSREKEYKELRNAISKNKIDKPMYVYYFESPEKFAFNKVIRTENQNEISLEKFNEFKETIQNKLFKQDGFKDISLYEPGKGDEKPTPLLMHLKLPRNTGMLPYTNTNNVSTLIEQGYSIKIDKIVRIVIDGKHYIKAEASVVSSLDFKDDVSKGDSWGKANYNDWSNKLTPNELADVNDYMRGGYTAINNYLISNGPVNNPNPELDSKITNIENALKREPIPTNLTVYARSGPQEFGLTLTSPEYDFNKLENIDAFKSKWEGQALSYPNFISTSIGSVNMSAFAKRKIVLRITIPKGSPGAYLSAIPGYAGAYDVLLNHGSKFKINKIDSYKDGTITKLIVDATLIP",binding result,[1],binds
"4mCDTa8 (CDTa minus the signal peptide with S345F, E385Q, E387Q and C2A) (enzyme) MVANTTYKAPIERPEDFLKDKEKAKEWERKEAERIEQKLERSEKEALESYKKDSVEISKYSQTRNYFYDYQIEANSREKEYKELRNAISKNKIDKPMYVYYFESPEKFAFNKVIRTENQNEISLEKFNEFKETIQNKLFKQDGFKDISLYEPGKGDEKPTPLLMHLKLPRNTGMLPYTNTNNVSTLIEQGYSIKIDKIVRIVIDGKHYIKAEASVVSSLDFKDDVSKGDSWGKANYNDWSNKLTPNELADVNDYMRGGYTAINNYLISNGPVNNPNPELDSKITNIENALKREPIPTNLTVYRRSGPQEFGLTLTSPEYDFNKLENIDAFKSKWEGQALSYPNFIFTSIGSVNMSAFAKRKIVLRITIPKGSPGAYLSAIPGYAGQYQVLLNHGSKFKINKIDSYKDGTITKLIVDATLIP",binding result,[2],no binding
